pKd: −log10 of the molar value.
Legend:
Assay in all cases: BLI
AZD8895 = target: AZD8895
AZD8895-25 = target: AZD8895-25
REGN10987 = target: REGN10987
AZD8895-275 = target: AZD8895-275
MW05 = target: MW05
Sotrovimab = target: Sotrovimab
AZD8895-450 = target: AZD8895-450
REGN10933 = target: REGN10933
Chain of REGN10933 (heavy, as listed by the source, chain 1 of 2): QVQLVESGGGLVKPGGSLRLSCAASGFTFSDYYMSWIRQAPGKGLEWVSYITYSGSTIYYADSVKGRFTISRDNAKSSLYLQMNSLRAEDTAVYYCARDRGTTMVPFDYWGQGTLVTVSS
Chain of REGN10933 (light, as listed by the source, chain 2 of 2): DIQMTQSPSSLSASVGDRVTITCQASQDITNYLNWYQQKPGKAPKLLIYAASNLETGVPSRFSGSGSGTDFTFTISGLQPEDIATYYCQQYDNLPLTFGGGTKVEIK

Chain of AZD8895-25 (heavy, as listed by the source, chain 1 of 2): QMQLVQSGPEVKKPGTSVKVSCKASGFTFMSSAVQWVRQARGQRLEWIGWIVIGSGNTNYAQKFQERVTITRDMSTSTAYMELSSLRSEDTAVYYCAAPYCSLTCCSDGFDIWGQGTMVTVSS
Chain of AZD8895-25 (light, as listed by the source, chain 2 of 2): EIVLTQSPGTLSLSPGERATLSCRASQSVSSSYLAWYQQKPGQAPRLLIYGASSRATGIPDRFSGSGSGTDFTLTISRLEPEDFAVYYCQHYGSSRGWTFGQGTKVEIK
Chain of AZD8895-275 (heavy, as listed by the source, chain 1 of 2): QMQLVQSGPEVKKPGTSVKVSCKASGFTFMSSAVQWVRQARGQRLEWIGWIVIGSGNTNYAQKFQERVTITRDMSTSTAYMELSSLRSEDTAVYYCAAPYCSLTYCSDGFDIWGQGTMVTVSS
Chain of AZD8895-450 (heavy, as listed by the source, chain 1 of 2): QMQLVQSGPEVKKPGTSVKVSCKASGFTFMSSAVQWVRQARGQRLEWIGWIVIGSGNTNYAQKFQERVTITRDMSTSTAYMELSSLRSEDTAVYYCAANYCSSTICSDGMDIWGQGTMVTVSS
Chain of REGN10987 (heavy, as listed by the source, chain 1 of 2): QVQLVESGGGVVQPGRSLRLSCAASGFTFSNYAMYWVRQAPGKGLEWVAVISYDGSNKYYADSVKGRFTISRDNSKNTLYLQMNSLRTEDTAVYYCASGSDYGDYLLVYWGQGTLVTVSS
Chain of REGN10987 (light, as listed by the source, chain 2 of 2): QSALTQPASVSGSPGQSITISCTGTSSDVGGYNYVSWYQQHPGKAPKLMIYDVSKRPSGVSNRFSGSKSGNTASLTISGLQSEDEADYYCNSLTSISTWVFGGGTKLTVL
Chain of MW05 (light, as listed by the source): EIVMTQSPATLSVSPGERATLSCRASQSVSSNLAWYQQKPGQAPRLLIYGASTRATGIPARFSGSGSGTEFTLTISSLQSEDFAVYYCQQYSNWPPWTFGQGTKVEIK
Chain of AZD8895 (heavy, as listed by the source, chain 1 of 2): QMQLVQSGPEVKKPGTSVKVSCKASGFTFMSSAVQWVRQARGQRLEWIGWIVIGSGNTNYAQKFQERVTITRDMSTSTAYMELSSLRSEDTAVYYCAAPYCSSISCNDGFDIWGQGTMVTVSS

## SARS-CoV-2 spike RBD protein (Sino Biological, 40592-V08H) (from UniProt P0DTC2) (domain or fragment)
AZD8895
  pKd: 8.17
AZD8895-25
  pKd: 8.32
REGN10987
  pKd: 8.23
AZD8895-275
  pKd: 8.29
MW05
  pKd: 8.72
Sotrovimab
  pKd: 8.85
AZD8895-450
  pKd: 8.13
REGN10933
  pKd: 8.17

— PMC12847411
